Experiments:
[1] = recombinant human sialidase activity, 4MU-NANA cleavage at pH 6.4 and 7.0; assay type: biochemical
Protocol: In general, sialidase activity, including human sialidase activity, may be assessed at 37° C. in the presence of buffers ranging in pH from 3.7 to 7.4. Buffers with pH 3.7, 4.0, 4.6, 5.2 and 5.6 are 100 mM sodium acetate buffers. Buffers with pH 5.8, 6.4, 7.0 and 8.0 are based on Phosphate-Buffered Saline (PBS), with addition of 12 N HCl or 1 M NaOH to adjust the pH. Bovine serum albumin (BSA) is added to the buffer at a concentration of 100 ug/ml. Sialidase at a final concentration of 300 ng/ml is then added to the buffer. A sialidase inhibitor is then added to the mixture at a series of final concentrations. The reaction mixture is incubated for 30 minutes to allow the inhibitor to bind the sialidase. The fluorometric substrate 4MU-NANA [2′-(4-Methylumbelliferyl)-α-D-N-acetylneuraminic acid sodium salt hydrate is then added at a final concentration of 200 μM. Control reactions have no added inhibitor. The total volume of each reaction mixture is 0.1 ml. The cleavage of 4MU-NANA is then monitored by fluorescence every 20 minutes for 5 hours with excitation light at 360 nm and the fluorescence emission at 460 nm.
The fluorescence in the absence of sialidases is subtracted from all readings. The fluorescence of known concentrations of 4-methylumbelliferone is used to convert fluorescence to moles of product.
To determine if sialidases have enzymatic activity at the pH of the extracellular environment, sialidases may be assayed at pH 7.0, approximately corresponding to an extracellular pH in a normal tissue, at pH 6.4, approximately corresponding to an extracellular pH in a fibrotic tissue, or both.
In an example assay, recombinant human sialidases were assayed at pH 6.4, approximately corresponding to the extracellular pH that might occur in a fibrotic tissue, and at pH 7.0, approximately corresponding to a normal extracellular pH.

human PBMC [2] = experiment: sialidase staining of human PBMC cultured with recombinant sialidases; assay type: cell-based
From the text: In a similar experiment, cells were stained for NEU1, NEU2, NEU3, or NEU4 using antibodies.

human PBMC [3] = experiment: fibrocyte formation in human PBMC, serum-free medium; assay type: cell-based; conditions: 5 days; for ability of SAP to inhibit fibrocyte formation: 100 ng/ml sialidase with 1 μg/ml SAP; for fibrocyte formation / differentiation: 100 ng/ml sialidase, 10 μg/ml DANA or 1 μg/ml SAP
Protocol: Human peripheral blood was collected from healthy adult volunteers who gave written consent and with specific approval from the Texas A&M University human subjects Institutional Review Board. Peripheral blood mononuclear cells (PBMC) were isolated from blood using Ficoll-Paque Plus (GE Healthcare Biosciences, Piscataway, NJ). Human PBMC were incubated in serum-free medium (FibroLife basal media (LM-0001, Lifeline Cell Technology, Walkersville, MD), supplemented with 10 mM HEPES (Sigma-Aldrich, St. Louis, MO), 1x non-essential amino acids (Sigma-Aldrich), 1 mM sodium pyruvate (Sigma-Aldrich), 2 mM glutamine (Invitrogen, Carlsbad, CA), 100 U/ml penicillin, 100 μg/ml streptomycin (Sigma-Aldrich), and 1x ITS-3 (Sigma-Aldrich) in the presence of absence of 100 ng/ml recombinant human sialidases (Origene, Rockville MD), 10 μg/ml DANA (Calbiochem, San Diego, CA), or 1 μg/ml human SAP (Calbiochem). After 5 days, fibrocytes were counted, and results are presented in FIG. 5.

human PBMC [4] = experiment: TGF-β1 accumulation by human PBMC (antibody staining and ELISA); assay type: cell-based; conditions: recombinant sialidase 200 ng/ml; five days
Protocol: To determine if sialidases might cause cells to accumulate intracellular and extracellular TGF-β1, human PBMC were cultured with sialidases in 96 well plates at 5×10^5 cells/ml and 200 μl/well in FibroLife serum-free medium for five days, then air dried. The levels of TGF-β1 in or on the cells was detected by staining with an antibody against TGF-β1. Photomicrographs were analyzed by counting stained cells (FIG. 7B) and quantifying staining intensity using ImageJ (FIG. 7C).
PBMC were cultured in 96 well plates at 5×10^5 cells/ml and 200 μl/well in FibroLife serum-free medium. When the cells were plated, recombinant human sialidases were added to final concentrations of 200 ng/ml, and DANA or oseltamivir were added to 3 μM. After 5 days, culture supernatants were analyzed using a TGF-β1 ELISA kit (R&D Systems).

human PBMC [5] = experiment: IL-6 ELISA of supernatants of human PBMC cultured with NEU3; assay type: cell-based; conditions: presence or absence of serum; two or five days
Protocol: To determine the effects of NEU3 on IL-6 production in human PBMC, human peripheral blood was collected from healthy volunteers who gave written consent and with specific approval from the Texas A&M University human subjects review board. PBMC were isolated from the blood using Ficoll-Paque density gradient centrifugation (GE Healthcare, Cincinnati, OH) following the manufacture's protocol. PBMCs were cultured at 10^5 cells/ml in each well of 96-well flat bottom tissue culture plates (VWR, Radnor, PA) with RPMI-1640 (VWR) supplemented with 10% bovine calf serum (BCS) (VWR), 100 U/ml penicillin, 100 μg/ml streptomycin, (VWR) and 2 mM glutamine (VWR) in a final volume of 200 μl per well. Cells were also cultured at 10^5 cells/ml in serum-free medium as described previously in Pilling, D., Vakil, V. & Gomer, R. H. Improved serum-free culture conditions for the differentiation of human and murine fibrocytes. […]
The culture supernatants were collected after two or five days and assayed using an IL-6 ELISA kit (BioLegend, San Diego, CA) following the manufacturer's protocol, reading absorbance with a SynergyMX plate reader (BioTek, Winooski, VT). Statistics were analyzed using Prism software (Graphpad, La Jolla, CA).

Molecule	Sialidase activity ([1]; pH 6.4)	Sialidase activity ([1]; pH 7.0)	levels of NEU3 in PBMC (human PBMC [2])	ability of SAP to inhibit fibrocyte formation (human PBMC [3])	fibrocyte formation / differentiation (human PBMC [3])	accumulation of TGF-β1 (human PBMC [4])	extracellular accumulation of IL-6 (human PBMC [5])
NEU2: recombinant human NEU2 (sialidase 2), human neuraminidase 2 (protein, UniProt Q9Y3R4 1-380, looked up) Sialidase-2: MASLPVLQKESVFQSGAHAYRIPALLYLPGQQSLLAFAEQRASKKDEHAELIVLRRGDYDAPTHQVQWQAQEVVAQARLDGHRSMNPCPLYDAQTGTLFLFFIAIPGQVTEQQQLQTRANVTRLCQVTSTDHGRTWSSPRDLTDAAIGPAYREWSTFAVGPGHCLQLHDRARSLVVPAYAYRKLHPIQRPIPSAFCFLSHDHGRTWARGHFVAQDTLECQVAEVETGEQRVVTLNARSHLRARVQAQSTNDGLDFQESQLVKKLVEPPPQGCQGSVISFPSPRSGPGSPAQWLLYTHPTHSWQRADLGAYLNPRPPAPEAWSEPVLLAKGSCAYSDLQSMGTGPDGSPLFGCLYEANDYEEIVFLMFTLKQAFPAEYLPQ	16.4 ± 1.2 μmole/min/mg protein	8.9 ± 1.2 μmole/min/mg protein	upregulate levels of NEU3	partially counteracted	potentiated fibrocyte formation	increased both cell-associated and extracellular TGF-β1	
NEU3: recombinant human sialidase NEU3 (TP316537, Origene) (protein, UniProt Q9UQ49 1-428, looked up) Sialidase-3: MEEVTTCSFNSPLFRQEDDRGITYRIPALLYIPPTHTFLAFAEKRSTRRDEDALHLVLRRGLRIGQLVQWGPLKPLMEATLPGHRTMNPCPVWEQKSGCVFLFFICVRGHVTERQQIVSGRNAARLCFIYSQDAGCSWSEVRDLTEEVIGSELKHWATFAVGPGHGIQLQSGRLVIPAYTYYIPSWFFCFQLPCKTRPHSLMIYSDDLGVTWHHGRLIRPMVTVECEVAEVTGRAGHPVLYCSARTPNRCRAEALSTDHGEGFQRLALSRQLCEPPHGCQGSVVSFRPLEIPHRCQDSSSKDAPTIQQSSPGSSLRLEEEAGTPSESWLLYSHPTSRKQRVDLGIYLNQTPLEAACWSRPWILHCGPCGYSDLAALEEEGLFGCLFECGTKQECEQIAFRLFTHREILSHLQGDCTSPGRNPSQFKSN	15.2 ± 1.0 μmole/min/mg protein	8.3 ± 1.2 μmole/min/mg protein		partially counteracted		increased both cell-associated and extracellular TGF-β1	significantly upregulated
NEU4: recombinant human NEU4 (sialidase 4), human neuraminidase 4 (protein, UniProt Q8WWR8 1-484, looked up) Sialidase-4: MGVPRTPSRTVLFERERTGLTYRVPSLLPVPPGPTLLAFVEQRLSPDDSHAHRLVLRRGTLAGGSVRWGALHVLGTAALAEHRSMNPCPVHDAGTGTVFLFFIAVLGHTPEAVQIATGRNAARLCCVASRDAGLSWGSARDLTEEAIGGAVQDWATFAVGPGHGVQLPSGRLLVPAYTYRVDRRECFGKICRTSPHSFAFYSDDHGRTWRCGGLVPNLRSGECQLAAVDGGQAGSFLYCNARSPLGSRVQALSTDEGTSFLPAERVASLPETAWGCQGSIVGFPAPAPNRPRDDSWSVGPGSPLQPPLLGPGVHEPPEEAAVDPRGGQVPGGPFSRLQPRGDGPRQPGPRPGVSGDVGSWTLALPMPFAAPPQSPTWLLYSHPVGRRARLHMGIRLSQSPLDPRSWTEPWVIYEGPSGYSDLASIGPAPEGGLVFACLYESGARTSYDEISFCTFSLREVLENVPASPKPPNLGDKPRGCCWPS	3.8 ± 0.8 μmole/min/mg protein	2.6 ± 0.9 μmole/min/mg protein		partially counteracted	potentiated fibrocyte formation	no significant effect	

— US20250144172A1, “ANTI-FIBROTIC SIALIDASE INHIBITOR COMPOUNDS AND METHODS OF USE” (The Texas A&M University System, priority 2016, published 2025)
